Data reported in patent US11426447B2, “Neuregulin for the treatment of tumors of the nervous system” (LEIBNIZ-INSTITUT FUR …, priority 2016, dated 2022).

Experiments:
[1] = system: sciatic nerve crush injury; experiment: Single-frame motion analysis (foot-base angle): functional recovery after sciatic nerve crush; format: in vivo, mice
Source text: (§1) Unilateral injuries of sciatic nerves were accomplished according to a previously described method (Bauder and Ferguson, 2012). In brief, 8 to 10 week old mice were anesthetized using 2% isoflurane in 100% oxygen. Fur was then removed from one hind limb. After an appropriate incision of the skin, the gluteal musculature was separated in order to reveal the right sciatic nerve. Using haemostatic forceps (Ultra Fine Haemostat; #13021-12; tip width 0.6 mm; Fine Science Tools; Germany), the nerve was crushed once by the application of a defined pressure for 20 s. The locking mechanism of the haemostatic forceps with a series of interlocking teeth ensured reproducibility and standardization of crush injury. Finally, both the gluteal musculature and skin incision were sutured using appropriate surgical suture material.
To evaluate locomotor function, mice were accustomed, in 3-4 trials, to beam-walking 1 week prior to surgery. In this test, the animal walks voluntarily from one end of a horizontal beam (length 1000 mm, width 40 mm) towards its home cage located at the other end of the beam. For all mice, a rear view of one walking trial was captured once prior to surgery and at different time-points after surgery with a Video camera and stored on a personal computer in Audio Video Interleaved (AVI) format. The video sequences were examined using VirtualDub 1.6.19 software.
It was tested whether rhNRG1 protein replacement can improve functional recovery of mice over a time period of 8 weeks after sciatic nerve crush.

[2] = system: crush injury-induced schwannoma; experiment: In situ tumour size quantification: sciatic nerve diameter after crush injury-induced schwannoma formation; format: in vivo, Nf2flox;P0-Cre;Nefh-Cre mutant mice; conditions: KO mice
Source text: as §1
An EGF domain containing 7 kDa protein of recombinant human Neuregulin 1 (“rhNRG1”) was purchased from Reprokine (#RKQ02297; USA). Protein was firstly resolved in ddH2O and further diluted in phosphate-buffered saline (PBS) to reach target concentrations. […]
Sciatic nerve crush injury was conducted on WT mice and Nf2flox;P0-Cre;Nefh-Cre mutant mice as described above. […] Moreover by determining the myelin thickness, structural integrity of non-crushed, intact nerves was assessed (FIG. 7).

[3] = system: ErbB2 and myelin protein zero (MPZ) expression; experiment: Immunoblot of nerve tissue from Nf1flox;Postn-Cre mice; format: in vivo; conditions: rhNRG1 over 3 months
Source text: A, Study protocol used to assess the efficacy of systemic rhNRG1 treatment on schwannoma growth in Nf1flox;Postn-Cre animals. B, Representative longitudinal nerve section from six-month-old mutant Nf1flox;Postn-Cre mice indicating a circumscribed area of neurofibroma growth. Scale bars represent 50 μm. C, Fraction of tumor tissue within total tissue was quantified as area covered by tumor in relation to the total nerve area in investigated nerve sections. Nf1flox;Postn-Cre mutant mice receiving intraperitoneal saline injections (KO vehicle ip) were compared to mutants on rhNRG1 injections (KO rhNRG1 ip; n=6 animals per genotype; mean±SEM). D, Immunoblot of pooled tissue from at least three different animals prepared from sciatic nerves, brachial nerves, trigeminal nerves and dorsal root ganglions (DRG). Nf1flox;Postn-Cre mutant animals received either vehicle control injections (KO vehicle ip) or rhNRG1 treatment (KO rhNRG1 ip) over 3 months. Immunostaining for ErbB2, Akt, phospho-Akt (pAkt), c-Jun, Erk1/2, phospho-Erk1/2 (pErk1/2), myelin protein zero (MPZ), myelin basic protein (MBP) and GAPDH as loading control (n=3).
Immunoblotting was performed as described in (Morrison et al., 2001). […] Western blot results were quantified using Gel analysis software by ImageJ. […]

B1: rhNRG1: EGF domain containing 7 kDa protein of recombinant human Neuregulin 1, purchased from Reprokine (#RKQ02297) (protein, listed as Homo sapiens)
chain: SHLVKCAEKEKTFCVNGGECFMVKDLSNPSRYLCKCPNEFTGDRCQNYVMASFYKHLGIEF
- functional recovery after sciatic nerve crush (SFMA) ([1]; Nf2flox;P0-Cre;Nefh-Cre mutant mice, intraperitoneal injections every other day, vs no treatment or saline): significantly improved recovery
- functional regeneration after sciatic nerve crush (SFMA) ([1]; Nf2flox;P0-Cre;Nefh-Cre mutant mice, local administration with absorbable collagen sponges, vs control treatment): able to increase functional regeneration
- functional recovery after sciatic nerve crush (SFMA) ([1]; wildtype animals, systemic rhNRG1, 8 weeks): does not enhance regeneration
- sciatic nerve diameter 3 months after crush injury ([2]; local collagen sponges soaked in 0.2 mg/ml rhNRG1, KO vehicle ACS about 1.8 mm, WT about 1 mm): about 1.4 mm
- sciatic nerve diameter 3 months after crush injury ([2]; systemic (ip) rhNRG1, KO vehicle about 2 mm, WT vehicle about 1 mm): about 1.5 mm
- ErbB2 expression (immunoblot) [3]: reduced
- myelin protein zero (MPZ) expression (immunoblot) [3]: increased
